Experimental data published in publication doi:10.1101/786475 (bioRxiv, 2019).

Tests used:
Assay in all cases: peptide or protein array
[1] = molecular target: T1, Ski8p (spotted on the yeast ProtoArray) (S. cerevisiae, UniProt Q02793 1-397)
T1 sequence (looked up): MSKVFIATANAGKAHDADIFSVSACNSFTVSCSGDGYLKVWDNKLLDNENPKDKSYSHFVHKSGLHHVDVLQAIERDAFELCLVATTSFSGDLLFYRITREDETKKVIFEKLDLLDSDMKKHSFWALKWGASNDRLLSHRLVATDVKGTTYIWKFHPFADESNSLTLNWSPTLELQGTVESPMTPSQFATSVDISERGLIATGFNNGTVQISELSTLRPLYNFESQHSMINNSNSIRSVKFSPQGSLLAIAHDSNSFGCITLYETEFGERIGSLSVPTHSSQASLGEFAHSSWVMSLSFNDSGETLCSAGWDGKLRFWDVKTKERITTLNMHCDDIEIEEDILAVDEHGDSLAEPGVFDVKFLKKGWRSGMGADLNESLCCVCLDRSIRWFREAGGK

[2] = molecular target: T2, Aip1p (spotted on the yeast ProtoArray) (S. cerevisiae, UniProt P46680 1-615)
T2 sequence (looked up): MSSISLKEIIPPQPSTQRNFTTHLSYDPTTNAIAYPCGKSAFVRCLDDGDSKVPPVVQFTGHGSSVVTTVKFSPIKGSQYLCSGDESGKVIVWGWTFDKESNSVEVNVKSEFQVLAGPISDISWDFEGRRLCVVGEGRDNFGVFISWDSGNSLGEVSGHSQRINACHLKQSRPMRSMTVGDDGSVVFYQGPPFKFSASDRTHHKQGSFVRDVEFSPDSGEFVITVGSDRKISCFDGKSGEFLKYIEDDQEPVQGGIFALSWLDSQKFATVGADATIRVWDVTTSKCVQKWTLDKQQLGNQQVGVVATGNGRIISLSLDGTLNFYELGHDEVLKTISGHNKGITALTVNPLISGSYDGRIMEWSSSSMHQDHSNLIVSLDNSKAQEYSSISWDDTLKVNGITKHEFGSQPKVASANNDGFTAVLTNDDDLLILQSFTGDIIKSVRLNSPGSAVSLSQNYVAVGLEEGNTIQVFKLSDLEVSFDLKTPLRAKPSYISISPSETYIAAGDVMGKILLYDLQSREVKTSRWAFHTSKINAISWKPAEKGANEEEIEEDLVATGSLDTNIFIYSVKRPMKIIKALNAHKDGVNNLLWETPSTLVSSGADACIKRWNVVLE

[3] = molecular target: T3, Erg20p (spotted on the yeast ProtoArray) (S. cerevisiae, UniProt P08524 1-352)
T3 sequence (looked up): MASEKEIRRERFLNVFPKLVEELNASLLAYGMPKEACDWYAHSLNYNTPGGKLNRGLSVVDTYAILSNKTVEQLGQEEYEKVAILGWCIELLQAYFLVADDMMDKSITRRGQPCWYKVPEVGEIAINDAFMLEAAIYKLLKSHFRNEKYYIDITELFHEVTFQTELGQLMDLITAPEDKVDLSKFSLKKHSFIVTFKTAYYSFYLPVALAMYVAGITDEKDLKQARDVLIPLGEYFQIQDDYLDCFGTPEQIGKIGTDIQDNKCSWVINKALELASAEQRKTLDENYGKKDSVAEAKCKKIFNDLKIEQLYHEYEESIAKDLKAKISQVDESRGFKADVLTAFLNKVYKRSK

Measured: binding result

B1: purified and biotinylated cytoplasmic domain of the Msb2p protein (HIS-Msb2p^CYT) (domain or fragment, S. cerevisiae, UniProt P32334 1207-1306, looked up)
chain: AFKYIIRRRIQSQEIIKNPEISSISSSEFGGEKNYNNEKRMSVQESITQSMRIQNWMDDSYYGHGLTNNDSTPTRHNTSSSIPKISRPIASQNSLGWNEV
modifications: biotinylated in vitro (sites not given)
binds: [1] | [2] | [3]
